What all share (assay): cell-based or functional assay
One test addresses human GLP-1 receptor (human, UniProt P43220 24-463).
In a further test the target is T1, human GIP receptor (human, UniProt P48546 22-466).
T1 sequence (looked up): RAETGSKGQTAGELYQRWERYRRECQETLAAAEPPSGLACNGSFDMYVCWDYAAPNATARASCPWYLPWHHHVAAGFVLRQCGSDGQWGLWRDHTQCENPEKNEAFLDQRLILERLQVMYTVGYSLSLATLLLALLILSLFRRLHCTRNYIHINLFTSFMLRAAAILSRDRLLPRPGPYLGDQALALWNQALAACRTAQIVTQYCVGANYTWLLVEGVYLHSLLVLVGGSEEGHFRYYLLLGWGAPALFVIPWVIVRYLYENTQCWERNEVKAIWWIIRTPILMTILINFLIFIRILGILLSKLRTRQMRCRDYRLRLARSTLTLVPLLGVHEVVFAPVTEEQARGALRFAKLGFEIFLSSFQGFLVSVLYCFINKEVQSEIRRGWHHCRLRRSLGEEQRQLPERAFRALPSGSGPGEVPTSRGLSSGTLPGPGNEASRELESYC

The target of test [1] is T2, human neuropeptide Y2 receptor (human, UniProt P49146 1-381).
T2 sequence (looked up): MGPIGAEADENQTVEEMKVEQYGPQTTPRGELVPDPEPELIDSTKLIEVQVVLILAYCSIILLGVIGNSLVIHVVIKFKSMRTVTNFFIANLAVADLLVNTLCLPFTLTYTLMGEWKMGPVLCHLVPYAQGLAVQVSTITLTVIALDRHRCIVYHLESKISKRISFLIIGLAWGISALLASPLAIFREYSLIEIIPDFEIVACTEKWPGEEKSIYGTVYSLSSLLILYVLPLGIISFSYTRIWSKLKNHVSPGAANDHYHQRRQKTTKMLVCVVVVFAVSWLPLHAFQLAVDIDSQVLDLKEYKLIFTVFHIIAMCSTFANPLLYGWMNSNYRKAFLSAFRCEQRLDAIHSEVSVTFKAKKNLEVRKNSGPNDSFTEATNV

*1 amine or outer side, *2 acyl side, *3 side chain or, on linkers, in order; H or OH if unused. Where no end group is shown, it is not given here. Side-chain parts run from the residue outwards. [ ]: non-standard residue; d: D form. The star is where a group is joined. C18 diacid = O=C(O)CCCCCCCCCCCCCCCCC(=O)*; γGlu = O=C(O)[C@H](CCC(=O)[*:2])N[*:1]; εLys = N[C@@H](CCCCN[*:1])C(=O)[*:2]; Aib = CC(C)(N)C(=O)O

B1: Compound 174 (peptide)
peptide: Y[Aib]EGTFTSDYSI[Aib]LEKQAQ[Aib]AFVRHLINK([γGlu-εLys-γGlu-γGlu-γGlu-γGlu-γGlu-C18 diacid])[Aib]TRQRY-NH2
modifications: also: TFA salt
Turning to B1, the “EC50, CreLuc luciferase reporter assay, hGLP1R 0.5% hP” value in the test with human GLP-1 receptor was found to be 1 nM.

B2: Compound 171 (peptide)
peptide: YXEGTFTSDYSIXLERQAQXAFVRHLINKXTRQRY
modifications: Aib at positions 2, 13, 20 and 30; Lys 29 epsilon-amino group carries C20DA-gGlu-gGlu-gGlu-gGlu-gGlu-gGlu-eLys; C-terminal amide
Consider B2, for which the “EC50, CreLuc luciferase reporter assay, hGIPR 0.5% hP” value (shortened to “EC50 … hGIPR 0.5% hP”) with human GIP receptor was determined as 0.4 nM. Also, in test [1], the “EC50, CreLuc luciferase reporter assay, hNPY2R 0.5% hP” value (“EC50 … hNPY2R 0.5% hP” below) was found to be 9.9 nM and the “EC50, CreLuc luciferase reporter assay, hNPY2R 100% hP” value (shortened to “EC50 … hNPY2R 100% hP”) came to 95.3 nM.

B3: Compound 172 (peptide)
peptide: YXEGTFTSDYSIXLEKQAQXAFVRHLINKWTRQRY
modifications: Aib at positions 2, 13 and 20; Lys 29 epsilon-amino group carries C18DA-gGlu-gGlu-gGlu-gGlu-gGlu-gGlu-eLys; C-terminal amide
In the case of B3, in the test with human GIP receptor, the “EC50 … hGIPR 0.5% hP” value came to 1.7 nM and the “EC50, CreLuc luciferase reporter assay, hGIPR 100% hP” value turned out to be 19.8 nM. Further, in test [1], the “EC50 … hNPY2R 0.5% hP” value came out at 52.7 nM and the “EC50 … hNPY2R 100% hP” value is 136 nM.

B4: Compound 173 (peptide)
peptide: YXEGTFTSDYSIXLDKQAQXAFVRHLLNKXTRQRY
modifications: Aib at positions 2, 13, 20 and 30; Lys 29 epsilon-amino group carries C18DA-gGlu-gGlu-gGlu-gGlu-gGlu-gGlu-eLys; C-terminal amide
Regarding B4, in the test with human GLP-1 receptor, the “EC50, CreLuc luciferase reporter assay, hGLP1R 0.5% hP” value came to 0.2 nM. In the test with human GIP receptor, the “EC50 … hGIPR 0.5% hP” value is 0.7 nM and the “EC50, CreLuc luciferase reporter assay, hGIPR 100% hP” value worked out at 20.1 nM. Further, in test [1], the “EC50 … hNPY2R 0.5% hP” value is 7.3 nM and the “EC50 … hNPY2R 100% hP” value was 55.5 nM.

The values above are taken from patent US20250382344A1, “Soluble GLP1/GIP/NPY2 Receptor Triple Agonists” (Boehringer Ingelheim International GmH, priority 2024, published 2025).
